Data on three molecules can be found in paper PMC9732815 (Cell reports, 2022).

Series [1] concerns the target T1, Apn2Cat(D222N/E59Q) (Saccharomyces cerevisiae, UniProt P38207 1-407, E59Q;D222N).
T1 sequence: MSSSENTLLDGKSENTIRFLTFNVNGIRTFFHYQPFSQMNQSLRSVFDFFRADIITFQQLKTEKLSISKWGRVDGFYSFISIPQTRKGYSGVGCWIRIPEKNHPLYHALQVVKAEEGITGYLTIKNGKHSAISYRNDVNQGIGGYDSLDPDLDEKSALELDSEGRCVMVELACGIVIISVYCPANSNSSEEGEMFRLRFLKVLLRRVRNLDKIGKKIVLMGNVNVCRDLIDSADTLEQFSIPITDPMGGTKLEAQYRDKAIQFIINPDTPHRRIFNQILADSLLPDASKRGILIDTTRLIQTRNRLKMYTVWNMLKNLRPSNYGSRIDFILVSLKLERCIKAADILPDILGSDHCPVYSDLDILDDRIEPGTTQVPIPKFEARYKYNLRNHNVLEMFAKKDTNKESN
The experiment in a line: X-ray crystallography.

In series [2] the target is T1, Apn2Cat(D222N/E59Q). The series is described as follows: X-ray crystallography. The source holds these as a separate data set.
Series [3] deals with the molecule itself. The series is described as follows: crystal structure.

Residue numbers refer to the chain shown, from its start. Like-named read-outs stand apart in the source and are kept apart here.

B1: duplex 2 (strand A + strand B) (dsDNA)
DNA 1: TCCGAAATTTCGG
DNA 2: CCGAAATTTCGGA
modifications: five phosphorothioate bonds at the 3' end of each strand (A TCCGAAAT*T*T*C*G*G; B CCGAAATT*T*C*G*G*A)
Regarding B1, the binding result in series [1] is “binds”.

B2: duplex 1 (strand A self-annealed) (dsDNA)
DNA 1: TCCGAAATTTCGG
DNA 2: TCCGAAATTTCGG
modifications: five phosphorothioate bonds at the 3' end of each strand (TCCGAAAT*T*T*C*G*G)
B2: in series [2], the binding result is on record as “binds”.

B3: Recombinant S. cerevisiae Apn2^Cat (residues 1–407) (domain or fragment, UniProt P38207 1-407, looked up)
chain: T1 sequence with Q59E, N222D
For the molecule B3, the “stoichiometry N” value in series [3] stood at 2.
